Test results: the supplement of paper PMC9170038

System: K4 kissing-loop RNA reporter
Experiment: apparent KD of K4 kissing-loop reporter; higher = weaker reporter binding
Settings: Eterna round: R107
Experimental: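 RNA-MaP round R107: designed RNA switches with theophylline, tryptophan, arginine or FMN aptamers are transcribed on-chip within common flanks. They are titrated with a labelled K4 kissing-loop RNA reporter in RNA-MaP buffer (100 mM Tris pH 7.5, 80 mM KCl, 4 mM MgCl2), without ligand or with the indicated ligand. Median apparent KD per design.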

[1] = input ligand: theophylline 20 uM
[2] = input ligand: tryptophan 2.4 mM
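Further: bound reporter read as fluorescence of individual clusters on recovered sequencing chips by microscopy, with normalized cluster intensities fitted with a binding model.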

| Sequence | apparent KD of K4 kissing-loop reporter (input ligand: FMN 200 uM) [nM] | apparent KD of K4 kissing-loop reporter (input ligand: arginine 13.2 mM) [nM] | apparent KD of K4 kissing-loop reporter (input ligand: none) [nM] | apparent KD of K4 kissing-loop reporter [1] [nM] | apparent KD of K4 kissing-loop reporter [2] [nM] |
| --- | --- | --- | --- | --- | --- |
| AGAUCUAAGCUGAGUUAGUCACCAUAAAGCAAGGAUAUUCCACGAAGAAGAAGGUGCAUCAUCCAUAGUGAUGUUAUGGCACGGG [theeternabot_sameState_KL_FMN_A_7] | 687 | 548 | 807 | 672 | 574 |
| GUAUCGCUAGGAGGAUAUUUCAAUUCGCCUAUAAAAGGUGAUACGGAGUGAUGUUCCGAUUUACGGAAAGAAGGCCUAGUGAUAC [FMN B 9] | 137 | 259 | 282 | 262 | 273 |
| GUGACACGUGAUGAUACCAGUCCACGGAAGUUCCUUAGUGAUGUUAACCUUGCUUUUUCUGACCCUUGGCAGCAUUAGUUGAGAA [theeternabot_sameState_KL_Theo_B_42] | 332 | 166 | 204 | 304 | 237 |
| AAAAUAAUCCAGUGAUGUUGGUAUCCAGAUACCAGCCACGAAAGUGGCCCUUGGCAGCUGUAGGACGUACAAAUAAGUACGUCCA [#OpenEnded 7 #StaticStem #K4Early] | 361 | 175 | 345 | 486 | 444 |
| AUCUGGUUGGGCGAUACCAGUUUGGCAUAGUGAUGUUAUGCAACGCUCAGUGCAAGGCCAAACCCUUGGCAGCGCACAUCCUUUC [theeternabot_exclusion_KL_Theo_B_3] | 128 | 99.1 | 105 | 117 | 105 |
| UUAAUAAUUCAAGGAUAUGUUUUCUAUUUCGAGUGAUGUUCGGAAUUAAUAAAUUUAAAAGAUUAUACAGAAGGUGAUAGAUAGU [Cynwulf-mod#3] | 89.5 | 82.5 | 90.9 | 88.1 | 75.9 |
| UGACAUUGCUCAGAUACCAGACAAGAGGAUCACCCUUGUGCCAAAACGUACUAAAUAAAUGUCCCUUGGCAGCUGAGCAAUGUCU [TheoBX 13] | 82.5 | 42.1 | 45.9 | 77.4 | 58.6 |
| ACGUAGUUCUAGGAUACCAGCCAAGGACGCCAGGACAAAAGUCCUGGCGCCAGUGAUGUUGGCCCUUGGCAGCCUAGAACUACGA [Omei KL Theo B Exc B v5] | 197 | 168 | 182 | 205 | 176 |
| AUAUUAAGCGGAAGGAGCGGCUGAACCAGUGAUGUUGGUUAAUCCAAGUGAUGUUGGAAAAGCCAGGUAGGUCGCCGCUAUAUAU [Same State Arg B GF 1] | 725 | 424 | 695 | 569 | 640 |
| UCAUAUACCAGAAGGAGCGUGCAGGACGAAUUAAUCAUCGACCUUAGUGAUGUUAAGGACGCACAGGUAGGUCGCUGGUAUAUGA [Arg B SS t4] | 444 | 431 | 479 | 484 | 439 |
| AGAGUUAAUUAGUCUUUUUUAACAUUAAGUCAGGAUAUCGUAUAUUCGAGAAGGGACACAUGCUAGUGAUGUUAGCUAUUUCUCA [JR_ExcFMNA_Sub018] | 50.2 | 90.5 | 56.5 | 86.7 | 47.2 |
| GAUGAUCGCGCGGCCGCCACUGGUCAGUGAUGUUGACAUUAAGGCGCCGAGUAGUAACGGCGCCACAGGACCGGGCGCGAUGUAG [First Shot] | 135 | 155 | 156 | 126 | 176 |
| UGUGUGUAGGGAAGGAGCGCCGAGAGAAGAAGAAAAGAGUGAUGUUCAAGACAAUAAAGACGGCAGGUAGGUCGCCCUGUGUGUG [Default title] | 756 | 706 | 516 | 517 | 267 |
| UACGCUGCCUGAGGAUAUAGAAACGAGUGAUGUUCGUGGAUAAGAGCCAGUGAUGUUGGGUUAUUUCUAGAAGGCAGGUAAAGUA [Exclusion FMN B GF6] | 106 | 89.1 | 102 | 95.8 | 100 |
| GUUUCAGUGAUGUUGGAAGGCGAGCGGGAUACCAGCCAAGACUCAGGCCCUUGGCAGCCCACAUAUCCCACGUAGAUAGUAGCUC [Same State - Theophylline A (Freestyle 14)] | 161 | 116 | 133 | 153 | 137 |
| AAGGUCACUACUACAGUGAUGUUGUAGGAGCAGGAUAUGCAGAAAUGCAGAAGGGCUCGCUCCAGGUGACCGAAUGAAACAUUCA [Omei KL FMN A SS A v3] | 333 | 504 | 573 | 475 | 501 |
| UCGACAGUGAACGAUACCAGCGUCACGUGGCUGGUGGUCACAUGAGUGAUGUUCAUGUAACGCCCUUGGCAGCGUGCACGUAUCA [KL-XTheo-B8] | 141 | 127 | 133 | 125 | 129 |
| UGGCGAGUGAUGUUCGUUGUUGUAGUGUGUCGAGGACCGGUACGGCCGCCACUCGGGUUGGUUGUUGUUGUUGUUGUUGUUGUUG [First Shot] | 218 | 187 | 196 | 292 | 101 |
| UAAUAUACGAGUGAUGUUCGUUAUUUAUCAGAGGAUAUGCUUAAAUGCAGAAGGCUGUUUUUCUAAUUGAUAUUAAAUUUUUUUA [JR_Nu_ExcFMNA_Sub028] | 77.2 | 90.1 | 74 | 89.7 | 63.3 |
| GAGAAUAACGGAAGGAGCGAGUAAUGGAGUGAUGUUCCAAUCAAUAAAACACAAUAAAAUACUCAGGUAGGUCGCCGUAGUAGUU [Exclusion Argiie B GF 12] | 244 | 339 | 323 | 330 | 215 |
| GGAGUGAUGUUCCAUUUUUAAAUCUCCGAUACCAGUAUGGAAACAUACCCUUGGCAGCGGUAAACCGCAGAUUAGGAAACUAGUC [Theophylline A K4 1] | 496 | 682 | 615 | 501 | 561 |
| UGAUAGGACAGAAGGAGCGGAGCUGGUCAAAGACCAGCAAUACGUUAAAUAGGAGUGAUGUUCCAGGUAGGUCGCUGUCCUAUCU [ArgBX 28 #SwitchBubble #StaticStem] | 131 | 121 | 121 | 101 | 87.9 |

| Sequence | apparent KD of K4 kissing-loop reporter (input ligand: FMN 200 uM) [nM] | apparent KD of K4 kissing-loop reporter (input ligand: arginine 13.2 mM) [nM] | apparent KD of K4 kissing-loop reporter (input ligand: none) [nM] | apparent KD of K4 kissing-loop reporter [1] [nM] | apparent KD of K4 kissing-loop reporter [2] [nM] |
| --- | --- | --- | --- | --- | --- |
| AUUUUUUUGUCAGGAUAUUAGUAUGCGUUUGGUUUGUUAGUGAUGUUGAUAUUUUGUUUAUGUAUUUAAGAAGGGAUUUAGCGGU [yyitemullin] | 497 | 348 | 511 | 497 | 359 |
| AACCGAGGUAAUCCACAAUGAUUAGAAGAUACCAGAUAUAUAAAUAUCCCUUGGCAGCUUUGAAUGAGUGAUGUUCAUUUGUCAU [KL-SSTheo-A11] | 126 | 207 | 159 | 214 | 104 |
| CGUACGGUUUCUUUCUUUCCGUACGAGUGCCGAGGACCGGUACGGCCGCCACUCGCUACAGCCUAGUGAUGUUAGGCAUUUCUUU | 104 | 110 | 105 | 146 | 94.1 |
| UGUGUUUACCUGACUCAGUGAUGUUGAGAAGGAGCGUGCAAACGCACAGGUAGGUCGCUCAACCUAAAUUCAGGUGAGCACUAAA | 568 | 380 | 453 | 423 | 406 |
| UUUCGUAGAAGUGAUACCAGACUGGAAAGUGAUGUUUUCCAAUUAUUUAAAUCCUUAUCUGUCCCUUGGCAGCACAGUUUAUUUA [JR_Nu_ExcTheophyB_Sub027] | 71.8 | 81.3 | 75.5 | 97.6 | 70 |
| ACCGCAUUGGGAUGAUCCCAAUGCGCUGGUCGAGGACCGGUACGGCCGCCACUCGUCCAGUGAUGUUGGACUAGGGCAACUGAAG [Bileesma] | 519 | 270 | 261 | 303 | 109 |
| GCCGUAGAUGGAAGGAGCGUGGUUAAUGUAAGUGAUGUUUACGAGGUUAACAAUUGACCGCCACAGGUAGGUCGCCAUCUACGGC | 84.6 | 65.9 | 74 | 70.5 | 70.5 |
| CUGGUUCAGUGAUGUUGGAAGGUUUAGGUGAAGGAUAUAUUGCAUAAUAGAAGGUCACGGCCAUGCAAUUAUUAACGUAGCCUGU [theeternabot_exclusion_KL_FMN_A_3] | 279 | 114 | 172 | 126 | 158 |
| GUGCAGUGAUGUUGCACGAGGAAAGACGAUACCAGCCGUAAAUAAGGCCCUUGGCAGCGUAGGCUAGCAUAAAGUACGCUAGUCC [Enarines] | 110 | 105 | 109 | 101 | 88.4 |
| GGUGCUGUCUGUGCCGCCCUCCUCGUCCCUCGAGGACCGGUACGGCCGCCACUCGAGUGAUGUUCGGGUAGCGAUCCCUGCUAGC [Bdazzled - #18 Exc. Tryptophan A] | 275 | 194 | 246 | 229 | 256 |
| UUUUUGGAGAAUUAUAGUGAUGUUAUGAAGGAGGAUAUCUGGAGAUGGAGAAGGCCUAGUGGCUCAGCCCUCGAGGGUGGGUGGG [ExFMNA.aC] | 646 | 626 | 441 | 778 | 354 |
| CCGCCGGUCGGAAGGAGCGCACGCCAGAGUGAUGUUCUGGCGCGGGCAUUUUGUGCCCGCGUGCAGGUAGGUCGCCGAUUCUGGC [Quxeorti] | 602 | 414 | 427 | 452 | 498 |
| CCAUGAGGAUAAGAUGAUAUCAUAACAGAAGGAGCGAGUGAUAACUCAGGUAGGUCGCUGAAUUUAUCGAGUGAUGUUCGAUGAA [Same State Arginine A GF11] | 194 | 164 | 193 | 179 | 164 |
| UUGUUUGGUUGAGAGGUUGGGCGAGAUGAUACCAGUAGAGAAGAGUACCCUUGGCAGCAUAAGAAAGAUAUAGUGAUGUUGUAUA [SSTheophA.P] | 422 | 362 | 546 | 566 | 396 |
| UGACAUUGCUCAGAUACCAGACUUGAGGAACACCCAAGUGCCAAAUACGUACAAAUAAAAGUCCCUUGGCAGCUGAGCAAUGUCU [TheoBX 12] | 58.3 | 23.5 | 48.5 | 148 | 38.5 |
| GGGCCGCGCGCGGCCGCCACUCAGUGAUGUUGGGUGAGCUUUGCUGUGCGUGCUGUUUCGUGACGGAGGACCGGGCGCGCGGCCU [BDazzled 2] | 129 | 93.6 | 121 | 113 | 215 |
| UCACGUGCCAGUGAUGUUGGCGUACGUGAUACCAGAACAAUAAAGUUCCCUUGGCAGCACAAAUAUGCCAAGUUAGAUGUAUGAU [Exclusion Theophylline A GF 3] | 121 | 118 | 123 | 119 | 113 |
| CCUGAUCCUAGUGAUGUUAGGUCCAACGGCCGAGGACCGGUACGGCCGCCACUCGUCAAUUGGAAACAGCCCACGGGCACCGGGU [theeternabot_sameState_KL_Trp_A_19] | 825 | 502 | 906 | 814 | 783 |
| GAUCUAUGUCCCGAUACCAGCUCAGAAGCUAGGGAGUGAUGUUCUCGGAGGUUAUCACUGAGCCCUUGGCAGCGGAACGUGACGA [theeternabot_sameState_KL_Theo_B_26] | 227 | 182 | 239 | 230 | 218 |
| GUAUCGCUAGGAGGAUAUUUCAAUCCGCCUAUAAUAGGUGGUACGGAGUGAUGUUCCGAUUUACGGAAAGAAGGCCUAGUGAUAC [FMN B 16] | 142 | 265 | 297 | 283 | 278 |
| AAUACGUUCACGGCCGCCACUGAAUAAUUGGUAAGUAGUGAUGUUACUUUACAUAUCUUAUUUAACAGGACCGGGUGAUCGUUUA [JR_Nu_ExcTryptoB_Sub028] | 130 | 108 | 122 | 105 | 142 |
